Series [1] addresses T1, wild-type (WT) human CAV1α with a C-terminal 6X-Histidine tag (human), Q03135.
T1 chain: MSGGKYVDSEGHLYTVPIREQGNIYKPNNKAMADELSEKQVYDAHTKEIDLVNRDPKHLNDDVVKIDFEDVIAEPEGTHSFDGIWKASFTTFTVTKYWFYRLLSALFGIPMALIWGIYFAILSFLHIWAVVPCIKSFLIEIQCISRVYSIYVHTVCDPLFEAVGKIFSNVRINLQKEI
As to the kind of experiment: negative stain electron microscopy. The following applies: remark: other sources report otherwise.

Series [2] concerns the molecule itself. As to the kind of experiment: negative stain electron microscopy.

B1: wild-type (WT) human CAV1α with a C-terminal 6X-Histidine tag, Q03135 1-178 (natural protein)
chain: T1 chain
For orientation: stoichiometry N means the number of molecules, sites or subunits per partner or assembly. As for B1, the stoichiometry N in series [1] came to 10.

B2: CAV1β with a 6X His-tag at the C terminus (natural protein, human, UniProt Q03135 32-178, looked up)
chain: MADELSEKQVYDAHTKEIDLVNRDPKHLNDDVVKIDFEDVIAEPEGTHSFDGIWKASFTTFTVTKYWFYRLLSALFGIPMALIWGIYFAILSFLHIWAVVPCIKSFLIEIQCISRVYSIYVHTVCDPLFEAVGKIFSNVRINLQKEI
For B2, the binding result in series [2] is reported as “binds”.

B3: CAV1β-Venus (natural protein, human, UniProt Q03135 32-178, looked up)
chain: B2 chain
For the molecule B3, in series [2], the binding result was “binds”.

Source of the values: PMC7821874 (Science Advances, 2020).
